# B1: mutant β^148–152 sliding clamp, N-terminally His6 and cAMP-dependent kinase motif tagged (natural protein, E. coli)
# chain: MKFTVEREHLLKPLQQVSGPLGGRPTLPILGNLLLQVADGTLSLTGTDLEMEMVARVALVQPHEPGATTVPARKFFDICRGLPEGAEIAVQLEGERMLVRSGRSRFSLSTLPAADFPNLDDWQSEVEFTLPQATMKRLIEATQFSMAAAAAAYYLNGMLFETEGEELRTVATDGHRLAVCSMPIGQSLPSHSVIVPRKGVIELMRMLDGGDNPLRVQIGSNNIRAHVGDFIFTSKLVDGRFPDYRRVLPKNPDKHLEAGCDLLKQAFARAAILSNEKFRGVRLYVSENQLKITANNPEQEEAEEILDVTYSGAEMEIGFNVSYVLDVLNALKCENVRMMLTDSVSSVQIEDAASQSAAYVVMPMRL
# Molecular target: DNA polymerase II (Pol II) of E. coli (E. coli, UniProt P21189 1-783)
# Test: SPR
# Chain of DNA polymerase II (Pol II) of E. coli (P21189 whole entry): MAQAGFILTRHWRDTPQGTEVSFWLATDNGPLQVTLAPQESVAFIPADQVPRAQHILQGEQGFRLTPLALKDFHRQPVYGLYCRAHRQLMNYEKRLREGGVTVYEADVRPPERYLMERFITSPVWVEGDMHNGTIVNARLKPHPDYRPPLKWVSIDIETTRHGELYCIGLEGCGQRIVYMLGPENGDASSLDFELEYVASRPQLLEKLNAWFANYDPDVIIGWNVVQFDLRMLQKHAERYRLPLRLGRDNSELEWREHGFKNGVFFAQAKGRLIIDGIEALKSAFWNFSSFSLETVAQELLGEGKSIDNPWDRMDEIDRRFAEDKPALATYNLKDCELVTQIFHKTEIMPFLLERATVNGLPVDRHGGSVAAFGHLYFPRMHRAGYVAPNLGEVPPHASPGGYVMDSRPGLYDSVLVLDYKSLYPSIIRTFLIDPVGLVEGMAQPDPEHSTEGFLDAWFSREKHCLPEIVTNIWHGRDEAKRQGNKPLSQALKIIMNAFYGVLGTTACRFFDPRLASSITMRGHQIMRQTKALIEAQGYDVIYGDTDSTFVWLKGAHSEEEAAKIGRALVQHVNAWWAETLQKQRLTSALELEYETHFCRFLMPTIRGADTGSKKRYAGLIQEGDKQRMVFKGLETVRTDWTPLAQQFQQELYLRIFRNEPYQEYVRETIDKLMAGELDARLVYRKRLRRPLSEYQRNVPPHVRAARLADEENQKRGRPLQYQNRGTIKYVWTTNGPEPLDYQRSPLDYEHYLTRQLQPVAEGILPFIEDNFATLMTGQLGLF
binder,measurement,value
B1,Kd,182 nM
same,koff,0.00273 s⁻¹
same,kon,15100 M⁻¹ s⁻¹

# From paper PMC2670953 (Journal of molecular biology, 2009)
